Results reported in paper doi:10.1101/2024.12.09.627393 (bioRxiv, 2024).

Target: T1, histone H4K5acK8acK12acK16ac residues 1–23 peptide (dCypher) (UniProt P62805 2-24, acetyl-lysine at 5, 8, 12 and 16)
T1 construct: histone H4 residues 1-23; also called H4Tetra^ac
Test: AlphaScreen or HTRF; dCypher: GST-CECR2-BRD titrated against histone peptides (100 nM); glutathione Acceptor and streptavidin Donor beads; 50 mM Tris pH 7.5, 50 mM NaCl, 0.01% Tween-20, 0.01% BSA, 1 mM TCEP, 0.0004% Poly-L-Lysine; room temperature; relative EC50 (EC50^rel)
Settings: both partners purified

- EC50: 7.2 nM
B1: GST-CECR2-BRD (GST tag retained, for dCypher assays) (domain or fragment)
chain: not shown
notes: human CECR2 bromodomain, amino acids 424-538 of UniProt Q9BXF3-1, codon optimized for E. coli, in pGEX-6P-1; PreScission Protease site between GST and the bromodomain; source: E. coli BL21(DE3) pLysS, purified (glutathione agarose, eluted with reduced glutathione, dialysed); not shown: GST, N-terminal, kept
